Measured values as given in the nanobody polyreactivity screen of Harvey et al. (2022).

Assay: yeast display, Sf9 membrane polyspecificity reagent, FACS + sequencing; frameworks hold sequencing errors
How it was run: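 Sorting gates, low and high (top ~1%), were placed on anti-HA fluorescence to track expression and on streptavidin fluorescence to track reagent binding. A clone's polyreactivity label is taken from the gate it came out of. The reagent was 10% biotinylated, detergent-solubilized Sf9 membrane, applied for 1 hour at 4 °C to galactose-induced yeast display cells.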

Sequence: QVQLVESGGGLVQAGGSLRLSCAASGRTFGKNAMGWYRQAPGKEREFVAAITSRGGSTYYADSVKGRFTISRDNAKNTVYLQMNSLKAEDTAVYYCNREYIRPSQRTEHYYWGQGTQVTVSS
- polyreactivity (PSR sort gate): low polyreactivity

Sequence: QVQLVESGGGLVQAGGSLRLSCAASGGTFRAYVMGWYRQAPGKERELVAAISRSGTRTYYADSVKGRFTISRDNAKNTVYSQLNSLKPEDTAVYYCAAAANSWLFDYWGQGTQVTVSS
- polyreactivity (PSR sort gate): high polyreactivity

Sequence: QVQLVESGGGLVQAGGSLRLSCAASGRIFLSNAMGWYRQAPGKERELVAAISWTGGSTYYADSVKGRFTISRDNAKNTVYLQMNSLKPEDTAVYYCAASTVGQTYSDYVDTYDYWGQGTQVTVSS
- polyreactivity (PSR sort gate): low polyreactivity

Sequence: QVQLVESGGGLVQAGGSLRLSCAASGYTFFYMGSYRQAPGKEREFVAVITYSGGSTYYADSVKGRFTISRDNAKNTVYLQLNSLKPEDTAVYYCAAAVWHYGRPGYLDSGYDYWGQGTQVTVSS
- polyreactivity (PSR sort gate): low polyreactivity

Sequence: QVQLVESGGGLVQAGGSLRLSCADSGGTFGNTAMGLYRQAHGKEMELVAAINRSDGGTYYADSEKCRFTISRDNAKNTVYLQMNSLKPEDTAVYYCNADDFYYDEPYDFWGQGTQVTVSS
- polyreactivity (PSR sort gate): low polyreactivity

Sequence: QVQLVESGGGLVQAGGSLRLRCAASGSTFRNAMGWYRQAPGKERELVAAISYSGGRTYYADSVKGRFTISRDNAKNTVYLQMNSLKPEDTAVYYCASPGVSWSTRSYYYWGQGTQVTVSS
- polyreactivity (PSR sort gate): high polyreactivity

Sequence: QVQLVESGGGLVQAGGSLRLSCAASGRTLQYNAMGWYRQAPGKEMELVAAISSSGGSTYYADSVKGRFTISRDNAKNTVYLQMNSLKPEDTALYYCNAYSQSWNFYGDGDYWGQGTLVTVSS
- polyreactivity (PSR sort gate): low polyreactivity

Sequence: QVQLVESGGGLVQAGGSLRFSCAPSGRILYKYAMGCYRQAPGKERELVAAISWRGTTTYYADSVKGRFTISRDNAKNTVYLQMNSLKPEDTAVYYCNARVRVRLGRNWSSYYYWGQGTQVTVSS
- polyreactivity (PSR sort gate): high polyreactivity

Sequence: QVQLVESGGGLVQAGGSLRLSCAASGFIFDDNTMGWYRQAPGKERELVAAISYSAGSTYYADSVKGRFTISRDNAKNTVYLQMNSLKPEDTAVYYCAAQHYWVTSYLSSYDYWGQGTQVTVSS
- polyreactivity (PSR sort gate): low polyreactivity

Sequence: QVQLVESGGGLVQAGGSLRLSCAASGSIFKYYAMGWYRQAPGKERELVAAITSGVSTYADSVKGPFTISRDNAKNTVYLQMNSLKPEDTAVYYCAVRVTGPRGDYWGQGTQVTVSS
- polyreactivity (PSR sort gate): low polyreactivity

Sequence: QVQLVESGGGLVQAGGSLRLSCAASGSIFKANGMGWYRQAPGKEREFVAAITRSGATTYYADSVKGRFTISRDNAKNTVYLQMNSLKPEDTAVYYCNVKAWRDLYYAGFDYWGQGTQVTVSS
- polyreactivity (PSR sort gate): low polyreactivity

Sequence: QVQLVESGGGLVQAGGSLRLSCAASGSIFPWNAMGWYRQAPGKERELVAAISRGGSTNYADSVKGRFTISRDNAKNTVYLQMNSLKPEDTAVYYCAVYYYSYHWGRGYDYWGQGTQVTVSS
- polyreactivity (PSR sort gate): high polyreactivity

Sequence: QVQLVESGGGLVQAGGSLRLSCAASGSTFQANAMGWYRQAPGKERELVAAISSRGGITYYADSVKGRFTISRDNAKNTVYLQMNSLKPEYTAVYYSNALPRCTYRQGLGVRLYYWGQGTQVTVSS
- polyreactivity (PSR sort gate): high polyreactivity

Sequence: QVQLVESGGGLVQAGCSLRLSCAASGYNLFAYAMGWYRQSPGKERELVATINTSGGITYYADSVNGRFTISRDIANNTVYLQMNSLKPEDTAVYYCAAADGGGLVTYYYWGQGTQVTVSS
- polyreactivity (PSR sort gate): low polyreactivity

Sequence: QVLLQESGGGLVQAGGSLRLSCAASGNIFSAGGMGCYRQAPVNERELVAGIGTGTSTNYADSVKGRFTISRDNAKNTVYLQMNSLKPEDTAVYYCAAAYYSGLSHWYWGQGTQVTVSS
- polyreactivity (PSR sort gate): low polyreactivity

Sequence: QVQLQESGGGLVQAGGSLRLSCAASGYISYFVGMGWYRQAPGKEREFVASIADGSNTYYADSVKGRFTISRDNAKNTVYLQRNSLKQEDTAVYYCAVEDSWTYRFDYWGQGTQVTVSS
- polyreactivity (PSR sort gate): high polyreactivity

Sequence: QVQLVESAGGLVQAGGSLSLSCAASGITFYRYVMGWYRQAPGKERELVAAISVSGGRTYYADSVKGRFTISRDNAKNTVYLQMNSLKPEDTAVYYCAARWAGSKSATVQYDYWGQGTQVTVSS
- polyreactivity (PSR sort gate): high polyreactivity

Sequence: QVQLVESGGGLVQAGGRLRLSCAASVGTFRPYAMGWYRQAPGKERELVAAISYTGSTYYADSVKGRFTISRDNAKNTVYLQMNSLKPADTAVYYCAKDFWYPPRFDYWGHGTQVTVSS
- polyreactivity (PSR sort gate): low polyreactivity

Sequence: QDQLVESGGGLVQAGGSLRLSCADYGNLVYNAKGWSRQAPGKERELVAAISARGGRTYYADSVKGRFTISRDNAKNTVYLQMNSLNPEDTAVYYCAARSYRLDSYYWGQGTQVSVSS
- polyreactivity (PSR sort gate): high polyreactivity

Sequence: QVQLVESGGGLVQAGGSLRLSCAASGFIFWYYAMGWYRQAPGKERELVAAINSSGGSTYYADSVKGRFTISRDNAKNTVSLQMNSLKPEDTAVYYCAARAYQRGNYWGQGTQVTVSS
- polyreactivity (PSR sort gate): high polyreactivity

Sequence: QVQLVESGGGLVQAGGSLRLSCAASGSIFERYAMVWYRQAPGKERELVAAISWSGSSTYYADSVKGRFTISRDNAKNTVYLQMNSLKPEDTAVYYCNKVWIDTGMEYWGQGTQVTVSS
- polyreactivity (PSR sort gate): low polyreactivity

Sequence: QVQLVESGGGLDQAGGSLRLSCAASVLIFNIYARGWYRQAPGKERELVATIRYSGGSTNYADSVKGRFTISRDNAKNTVYLQMNSLKPEDTAVYYCNAGYYPSGYDYWGQGTQVTVSS
- polyreactivity (PSR sort gate): low polyreactivity

Sequence: QVQLVESGGGLVQAGGSLRLSCAAYGSIFSFYVMGWNRQAPGKERELVARINWSSTSTYYADSVKGRFTISRDNAKNTVYLQMNSLKPEDTAVYYCAAGRRVYPGYYYWGQGTQVTVSS
- polyreactivity (PSR sort gate): high polyreactivity

Sequence: QVQLGESGGGLVQAGGSLRLSCAASGITFPGYAMGWYRQAPGKERELVARISRSGGSTYYADSVKGRFTISRDNAKNTVYFQMNSLKPEDTAVYYCAAGAYRSGGYSFDDWGQGTQVTVSS
- polyreactivity (PSR sort gate): low polyreactivity

Sequence: QVQLHESGCGLVQAGGSLRLSCAASGTISYAGPMGWYRPAPGNEREFVAGIGVGSNTNYADSVKGRYTIIRDNATNTVYLQMNSLKPEDTAVYYCAVGGYAPLGRPYWGQGTQVTVSS
- polyreactivity (PSR sort gate): low polyreactivity

Sequence: QVQLVESGGGLVQAGGSLRLSCDASGNTFRGYAMGWYRQAPGKERELVAAITSGGRTYYADSVKGRFTISRDNAKNTVYLQMNSLKPEDTAVYYCNAVLGRYVTYNYWGQGTQVTVSS
- polyreactivity (PSR sort gate): high polyreactivity

Sequence: QVQLVESGGGLVQAGGSLRLSCAASGSIFRKNAMGWYRQAPGKERELVAAITGTGRTTYADSVKGRFTISRDNAKNTVYLQMNSLKPEDTAVYYCATSYHRRYDYWGQGTQVTVSS
- polyreactivity (PSR sort gate): low polyreactivity

Sequence: QVQIVESGGGLVQAGGSLRLSCAASGSTFYPNAMGWYRQAPGKERELVAAISRGTRTKYADSVKGRFTISRDNAKNTVYLQINSLKPEDTAVYYCAADTGKGLDWGQGTHVTVSS
- polyreactivity (PSR sort gate): high polyreactivity

Sequence: QVQLVESGGGLVQAGGSLRLSCAASGSIFSDNAMGWYRQAPGKERELVAAITWSGGSTYYADSVKGRFTISRDNAKNTVYLQMNSLKPEDTAVYYCAADGDYYWYYHGTYDYWGQGTQVTVSS
- polyreactivity (PSR sort gate): low polyreactivity

Sequence: QVQLVESGGGLVQAGGSLRLSCAASGYTFTIYAMGWYRKAPGKERELVAAITGRGGRTNYADSVKGRFTISRDNAKNTVYLQMNSLKPEDTAVYYCNAVTKVVYHGPYGYDYWGQGTQVTVSS
- polyreactivity (PSR sort gate): high polyreactivity

Sequence: QVQLVESGGGLVQAGGSLRLSCAASGRIFFTNAMGWYRQAPGKETELVASIDDTGSTNYADSVKGRFTISRDNAKNTVYLQMNSLKPEDTAVYYCNGVYYSYRYGHDYWGQGTQVTVSS
- polyreactivity (PSR sort gate): low polyreactivity

Sequence: QVQLVESGGGLVQAGGSLLLSCAASVFIYRWYAMGWYRPAPGKERELVAGISASGGSTYYADSVKGRFTISRDNAKNTVYLQMNSLKPEDTAVYYCAAYRRNSRWELDYWGQGTQVTVSS
- polyreactivity (PSR sort gate): high polyreactivity
